This passage reports binding result and Kd results from patent US20060270837A1 (published 2006).

Sequences and labels used below:
B1: scFv T1014F08 (scFv)
scFv: EVQLVQSGAEVKKPGASVKLSCRVSGDTFTAYFIHWVRQAPGQGPEWMGWFNPISGTAGSAARFRGRVAMTRDTSISTAYMELNRLTFDDTAVYYCARQHRGNTFDPWGKGTLVTVSSGGGGSGGGGSGGGGSALPVLTQPPSASGSPGQSVTISCTGTSSDVGGYKYVSWYQQHPGKAPKLMIYEVSMRPSGVPDRFSGSKSGNTASLTVSGLQAEDEADYYCASYAGSNNWVFGGGTKLTVLG
B2: scFv T1014G03 (scFv)
scFv: EVQLVQSGAEVKMPGASVKLSCRVSGDTFTAYFIHWVRQAPGQGLEWMGWFNPISGTAGSAEKFRGRVAMTRDTSISTAYMELNRLTFDDTAVYYCARQHRGNTFDPWGQGTLVTVSSGGGGSGGGGSGGGGSAQSALTQPASVSGSPGQSITISCTGTSSDIGAYKYVSWYQQHPGKAPKLVIYEVSNRPSGVSSRFSGSKSGQTASLTISGLQADDEADYYCNSYQGYNTWVFGGGTKVTVLG
B3: scFv T1014G04 (scFv)
scFv: EVQLVQSGADVKRPGASVKVSCKISGDSFTAYFIHWVRQAPGQGLEWMGWFNPDSGTADSAQKFHGRVTMTRDTSSSTAFLELSRLRSDDTAVYYCVRQHRGNTFAPWGRGTLVTVSSGGGGSGGGGSGGGGSAQPVLTQPPSASGSPGQSVTISCTGTSSDVGSYEYVSWYQQHPGKAPRLMISEVNKRPSGVPNRFSGSKSGNTASLTVSGLQADDEADYYCSSYAGSNNWVFGGGTKVTVLG
B4: scFv T1014B11 (scFv)
scFv: EVQLVQSGAEVKKPGASVKVSCKISGDSFTAYFIHWLRQAPGEGLEWMGWFNPISGTAGSPQKFHGRVAMTRDTSISTAYMELTRLASDDTAIYYCARQHHSNTFDPWGQGTLVTVSSGGGGSGGGGSGGGGSAQSALTQPASVSGSPGQSITISCTGTNSDVGGYNYVSWYQQHPGKAPKLMIYEVNNRPSGVSNRFSGSKSGNTASLTISGLQADDEADYYCSSYTTSNTWVFGGGTKLTVLG
B5: scFv T1014A04 (scFv)
scFv: EVQLVQSGADVKRPGASVKVSCKISGDSFNAYFIHWVRQAPGQGLEWMGWFNPDSGTADSAQKFHGRVTMTRDTSSSTAFLELSRLRSDDTAVYYCVRQHRGNTFAPWGRGTMVTVSSGGGGSGGGGSGGGGSAQSVLTQPPSASGSPGQSVTISCTGTTSDVGGYNYVSWYQQHPGKAPKLMIYGVNQRPSGVPDRFSGSKSGNTASLTVSGLQAEDEADYYCSSYAGSNNWVFGGGTKLTVLG
B6: IgG1 antibody comprising the VH and VL domains of the T1014G03 scFv (antibody, V domains shown)
VH: EVQLVQSGAEVKMPGASVKLSCRVSGDTFTAYFIHWVRQAPGQGLEWMGWFNPISGTAGSAEKFRGRVAMTRDTSISTAYMELNRLTFDDTAVYYCARQHRGNTFDPWGQGTLVTVSS
VL: QSALTQPASVSGSPGQSITISCTGTSSDIGAYKYVSWYQQHPGKAPKLVIYEVSNRPSGVSSRFSGSKSGQTASLTISGLQADDEADYYCNSYQGYNTWVFGGGTKVTVLG
notes: Whole IgG1
B7: IgG1 antibody comprising the VH and VL domains of the T1014A04 scFv (antibody, V domains shown)
VH: EVQLVQSGADVKRPGASVKVSCKISGDSFNAYFIHWVRQAPGQGLEWMGWFNPDSGTADSAQKFHGRVTMTRDTSSSTAFLELSRLRSDDTAVYYCVRQHRGNTFAPWGRGTMVTVSS
VL: QSVLTQPPSASGSPGQSVTISCTGTTSDVGGYNYVSWYQQHPGKAPKLMIYGVNQRPSGVPDRFSGSKSGNTASLTVSGLQAEDEADYYCSSYAGSNNWVFGGGTKLTVLG
notes: Whole IgG1; also called IgG1 format of T1014A04
B8: IgG1 antibody comprising the VH and VL domains of the T1014G04 scFv (antibody, V domains shown)
VH: B7 VH with N30T, M113L
VL: QPVLTQPPSASGSPGQSVTISCTGTSSDVGSYEYVSWYQQHPGKAPRLMISEVNKRPSGVPNRFSGSKSGNTASLTVSGLQADDEADYYCSSYAGSNNWVFGGGTKVTVLG
notes: Whole IgG1; also called T14G04

Residue numbers refer to the chain shown, from its start.

Chain of BLyS (Q9Y275 134-285 limits assumed): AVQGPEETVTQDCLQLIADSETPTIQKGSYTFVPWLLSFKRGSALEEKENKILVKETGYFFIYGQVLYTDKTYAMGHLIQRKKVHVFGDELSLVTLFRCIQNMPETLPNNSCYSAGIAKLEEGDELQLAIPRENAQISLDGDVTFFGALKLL
T1 sequence (O14763 52-184 limits assumed): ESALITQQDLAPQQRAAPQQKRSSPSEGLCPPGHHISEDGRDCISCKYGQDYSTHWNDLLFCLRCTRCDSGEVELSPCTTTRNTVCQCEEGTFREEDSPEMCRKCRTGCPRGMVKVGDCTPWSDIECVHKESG

One test addresses T1, TR7 (human, UniProt O14763 52-184).
T1 construct: The construct coated in the specificity phage ELISA is not described; also called TRAIL-R2; DR5
In words: specificity phage ELISA, antigen coated at 1 ug/ml, anti-M13-HRP detection. As to the method: (§1) Flexible 96-well plates (Falcon) were coated overnight at 4° C. with each antigen (1 μg/ml). All antigens were coated in PBS. After coating, the solutions were removed from the wells, and the plates were blocked for 1 hour at room temperature in MPBS. The plates were washed 3 times with PBS and then 50 μl of pre-blocked phage was added to each well. The plates were incubated at room temperature for 1 hour and then washed with 3 changes of PBST followed by 3 changes of PBS.
(§2) To each well, 50 μl of an anti-M13-HRP conjugate (Pharmacia) at a 1 in 5000 dilution in MPBS was added and the plates incubated at room temperature for 1 hour. Each plate was washed three times with PBST followed by three times with PBS.
(§3) Fifty μl of TMB substrate was then added to each well, and incubated at room temperature for 30 minutes or until colour development. The reaction was stopped by the addition of 25 μl of 0.5 M H₂SO₄. The signal generated was measured by reading the absorbance at 450 nm (A₄₅₀) using a microtitre plate reader (Bio-Rad 3550).
On the technique in general: In an ELISA, binding on a coated surface is turned into a signal by an enzyme label.
As to B1, the binding result was “no binding”.

With B2, the binding result is reported as “no binding”.

For the molecule B3, the binding result is given as “no binding”.

As to B4, the binding result is recorded as “no binding”.

Take B5: the binding result is on record as “no binding”.

For the next test, the target named is T2, TR10 (human, UniProt Q9UBN6 56-211, limits assumed).
T2 construct: The construct coated in the specificity phage ELISA is not described; also called TRAIL-R4; DcR2
T2 sequence: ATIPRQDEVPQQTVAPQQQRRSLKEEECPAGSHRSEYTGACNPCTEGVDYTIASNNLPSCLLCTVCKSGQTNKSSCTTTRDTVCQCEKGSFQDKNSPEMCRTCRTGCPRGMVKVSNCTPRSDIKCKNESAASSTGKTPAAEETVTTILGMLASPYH
The description is as above. Here is the method: as §1, §2, §3
As to B1, the binding result is “no binding”.

In the case of B2, the binding result is reported as “no binding”.

Turning to B3, the binding result is “no binding”.

On to B4, for which the binding result is listed as “no binding”.

As for B5, the binding result is “no binding”.

Another test deals with BLyS (human, UniProt Q9Y275 134-285). Described as above. As to the method:
as §1, §2, §3
As for B1, the binding result was “no binding”.

Turning to B2, the binding result is recorded as “no binding”.

With B3, the binding result is on record as “no binding”.

On to B4, for which the binding result is recorded as “no binding”.

Regarding B5, the binding result is given as “no binding”.

The target of a further test is T3, TR4-Fc fusion protein (human, UniProt O00220 109-240).
T3 construct: also called TR4:Fc receptor; not shown: Fc region
T3 chain: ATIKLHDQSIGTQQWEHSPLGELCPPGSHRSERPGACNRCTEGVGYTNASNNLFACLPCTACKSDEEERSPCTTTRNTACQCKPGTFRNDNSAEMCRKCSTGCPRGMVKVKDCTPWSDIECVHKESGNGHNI
As to the kind of experiment: SPR (BIAcore 2000), TR4:Fc amine-coupled on CM5 chip, IgG1 as analyte 0.75-65 nM, TR2:Fc control cell, double reference subtraction, 1:1 Langmuir fit, 25 C. As to the method:
The optimal pH for this coupling was analyzed using preconcentration experiments ranging from pH 4-7 and was determined to be pH 4.0 for both the TR4 and the TR2 receptor. Amine coupling was used to covalently bind each receptor (fc) to the dextran matrix on the CM5 sensor chip. The immobilization experiment was performed using the manual injection mode. The entire immobilization experiment was performed at 5 μL/min. A 3-minute injection of EDC/NHS (1:1) was applied to each flow cell to active esters. A target level of ˜200RU was set as the goal for all each flow cell. Fc-fusion receptors, TR4 and TR2 at 5 μg/mL, were immobilized onto individual flow cells of a sensor chip. The amount applied varied from 8-14 μL. A 3-minute ethanolamine injection completed the immobilization experiment by inactivating the esters.
The kinetics cycles were performed as follows: The flow rate for the entire cycle was 25 μL/minute with the flow path including both the control (TR2) and experimental (TR4) flow cell at all times. A 1-minute buffer injection was applied to stabilize the baseline. The purified antibody (IgG1 antibody comprising the VH and VL domains of each of the T1014A04, T1014G03, T1014F08, and T14G04 scFvs) was diluted from 10 μg/mL (65 nM) to 0.115 μg/mL (0.75 nM) in running buffer and tested in duplicate. Each concentration was in contact with the control (TR2) and the experimental (TR4) flow cell during a 4-minute association and a 10-minute dissociation phase. Regeneration was performed using 25 mM NaOH from 5-12 μL depending on the sample concentration.
A double-reference subtraction was performed, which refers to the control flow cell subtraction for every cycle, in addition to a buffer cycle subtraction. The 1:1 Langmuir model was used for all evaluation fitting.
The Kd is the equilibrium constant for the complex coming apart. Take B6: the Kd was 0.554 nM.

With B7, the Kd was found to be 0.468 nM.

Turning to B8, binding was put at a Kd of 0.194 nM. This Kd lies about 2.4-fold lower than the previous one.
